{"source": "paper PMC3084761", "molecular_target": "OS-9 fused to the N-terminus of EYFP (pEYFP-N1-OS-9) (human) (UniProt Q13438)", "sequence (Q13438 26-667)": "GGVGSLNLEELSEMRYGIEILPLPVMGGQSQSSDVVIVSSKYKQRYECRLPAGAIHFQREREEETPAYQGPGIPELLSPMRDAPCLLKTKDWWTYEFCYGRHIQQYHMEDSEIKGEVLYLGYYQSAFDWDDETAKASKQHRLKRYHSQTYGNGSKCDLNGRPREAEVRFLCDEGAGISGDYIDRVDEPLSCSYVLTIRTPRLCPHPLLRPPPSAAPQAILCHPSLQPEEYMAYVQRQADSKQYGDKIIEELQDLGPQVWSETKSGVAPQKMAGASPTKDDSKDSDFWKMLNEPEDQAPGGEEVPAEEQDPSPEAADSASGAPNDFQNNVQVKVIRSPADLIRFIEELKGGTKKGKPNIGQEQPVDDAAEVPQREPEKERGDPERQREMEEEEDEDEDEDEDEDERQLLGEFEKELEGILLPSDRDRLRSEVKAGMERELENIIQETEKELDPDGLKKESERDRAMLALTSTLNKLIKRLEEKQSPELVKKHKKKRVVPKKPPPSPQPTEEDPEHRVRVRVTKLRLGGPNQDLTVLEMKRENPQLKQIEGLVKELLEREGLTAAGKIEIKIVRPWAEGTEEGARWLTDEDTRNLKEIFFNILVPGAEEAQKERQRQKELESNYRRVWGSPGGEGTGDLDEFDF", "test": "FRET or BRET; live-cell confocal FRET of ECFP (donor) and EYFP (acceptor) fusions in HEK293 cells transfected 48 h; acceptor/donor plasmid ratios 1:1 to 5:1; FRET efficiency against A/D ratio fitted to a 1:1 binding model", "data": [{"substance": "PHD2-ECFP (PHD2 coding sequence in pECFP-N1) (from UniProt Q9GZT9 1-426) (enzyme)", "values": [{"measurement": "maximum FRET efficiency", "value": "< 10", "unit": "%"}]}]}
